Measurements published in article PMC4351601, “Structural basis for self-assembly of a cytolytic pore lined by protein and lipid” (Nature Communications, 2015).

Tests used:
[1] = target: the molecule itself; test: cell-based or functional assay
[2] = target: the molecule itself; test: crystal structure; dimeric form (assembly intermediate); crystals with 100 mM POC, 3 mM DDM, 200 mM Li2SO4, PEG 8,000, sodium acetate pH 4.1-4.3; two crystal forms, 1.57 and 1.60 Å
[3] = target: the molecule itself; test: crystal structure; transmembrane pore; water-soluble FraC incubated with lipid vesicles, solubilised and purified in detergent (DDM 0.015%), crystallised by the lipid sponge phase method, 20 °C; 3.1 Å; 24 bound lipids modelled as SM

| Protein | haemolytic activity (horse erythrocytes), relative to wild-type FraC [1] | stoichiometry N [2] | stoichiometry N [3] |
| --- | --- | --- | --- |
| FraC mutein V60E/W149A (natural protein) SADVAGAVIDGAGLGFDVLKTVLEALGNVKRKIAVGIDNESGKTWTAMNTYFRSGTSDIELPHKVAHGKALLYNGQKNRGPVATGVVGVIAYSMSDGNTLAVLFSVPYDYNWYSNWWNVRVYKGQKRADQRMYEELYYHRSPFRGDNGAHSRGLGYGLKSRGFMNSSGHAILEIHVTKA | ~16 % of wild type |  |  |
| FraC mutein V8C/K69C, oxidised (engineered disulfide bond between the N-terminal and beta-core regions) (natural protein) SADVAGACIDGAGLGFDVLKTVLEALGNVKRKIAVGIDNESGKTWTAMNTYFRSGTSDIVLPHKVAHGCALLYNGQKNRGPVATGVVGVIAYSMSDGNTLAVLFSVPYDYNWYSNWWNVRVYKGQKRADQRMYEELYYHRSPFRGDNGWHSRGLGYGLKSRGFMNSSGHAILEIHVTKA | 1 % of wild type |  |  |
| fragaceatoxin C (FraC), wild type (natural protein, no tag is mentioned; also called water-soluble FraC; monomeric FraC; source: E. coli BL21 (DE3), purified (Resource S cation exchange, Superdex 75 SEC)) SADVAGAVIDGAGLGFDVLKTVLEALGNVKRKIAVGIDNESGKTWTAMNTYFRSGTSDIVLPHKVAHGKALLYNGQKNRGPVATGVVGVIAYSMSDGNTLAVLFSVPYDYNWYSNWWNVRVYKGQKRADQRMYEELYYHRSPFRGDNGWHSRGLGYGLKSRGFMNSSGHAILEIHVTKA |  | 2 | 8 |
